# Experimental data published in the DeepSol protein solubility set.
# Test: soluble on expression in E. coli; label from the status in PepcDB or PDB records
row,Sequence,soluble on expression in E. coli
1,MKKNTSKTTMRINKQDALCTPHSHDPRDLQNMLDGGEYAPFVSPPMLESNFIQVNRRGESIYLHNRANWVTVGICFSSSTHKIPNVMLLAHLTPGAQKDTETLFKSLLTSPPAEKLVLTRFLPLQFVTLSVHDAENMSLKVKLVSGRAYYLQLCTSAYKQDTLFSQWVALISLLNQEKAKVSKVSEVSSLSGITNSTDITGSMDVTDVTTFTAILTPYMYAGTGPEHVRDSIDFPEFTDITDITDVTDLPENEVPEVPDVRIVTEVIEVREATEVTDSSDITNCSGVTVVFENNDLIRAKQEEKEKLKNILKPGCLQDTKSKRYFQTTLTPVESEANTSKEMKDKTSEEKMPDFQSTALKAEESRSLRTESNTSVLSPHIKSPSNFLKLVPHLSAPFSRE,soluble
2,MKKRILAVAVTSMLLSASVFAQETVVPSRVGDLKFESDFPTQETMKNMLNEMDFQRATQAYLWGIPASSIMEWLNVSRNDFKFEEGQMGFFNTLKQKQGIITANFTTPYVIGTWNLEKTGPLIINLPEAKMAGMMLDVHQRVLSDLSLLGPDKGKGGKYLIVPPGEKYKDLNPKGYYVIRPKTNVVYGGIRILEPDVDRVVKQVVPNITTQPYADGKLGRKIPVAQVPEIDWTHIPKDGLEYWKTIHQIIQENPVEERDRFVMAQLKFLGIEKGKPFNPTEEQKKILLEASKVGRAMAQSNDYTKRFTQPYWKGTNWKDAISVSLDQRSENYDELDERAAWFYEAITVSRGMKSTIPGFGQRYLVTYQDSDGNWLSGEHTYKLHVPANVPASNFWSTTVYDENNRLMIINDAGSPDISSRKNLKVNSDGSIDVYYGPKPVKGYENNWVQTNPGEGWFTYFRFYGPTEKMFDKSWTMGDIELVKLEHHHHHH,soluble
3,MKKRYLVLTALLALSLAACSQEKTKNEDGETKTEQTAKADGTVGSKSQGAAQKKAEVVNKGDYYSIQGKYDEIIVANKHYPLSKDYNPGENPTAKAELVKLIKAMQEAGFPISDHYSGFRSYETQTKLYQDYVNQDGKAAADRYSARPGYSEHQTGLAFDVIGTDGDLVTEEKAAQWLLDHAADYGFVVRYLKGKEKETGYMAEEWHLRYVGKEAKEIAASGLSLEEYYGFEGGDYVD,not soluble
4,MKKTHINVIGAGLAGSEAAYQIAKRGIPVKLYEMRGVKQTPQHKTDKFAELVCSNSLRGAAITNAVGLLKEEMRRLDSVIIKAAEVTQVPAGGALAVDREGFSDFVTREVSNHPLVEVIREEITDLPEDEITIIATGPLTSDKLAEKIHEFNGADGFYFYDAAAPIIDANSINFDKVYKKSRYDKGEADYINCPMTKEEFQAFQEALISAEEAPLNSFEDLKVFEGCMPIEEMAKRGYKTMLFGPMKPVGLEYPEDYKGPRDGDFKTPYAVVQLRQDNASASLYNIVGFQTHLKWGEQKRVFQMIPGLENAEFVRYGVMHRNSYMDSPNLLKQTFQSRKQENLFFAGQMTGVEGYVESAASGLVAGINAVKLFNDEEVVIFPKTTAIGSLPYYITHTDSKHFQPMNVTFGIVEELEGPRIRDKKERYTKVAERALNSLTDIISKDNLLEHHHHHH,soluble
5,MKKVEVLKRLENAGVIAVLRADSKEEALKISHAVVEGGMIGLELTFTVPQADEVIRSLVETYHDEKDIVIGAGTVLDAVTARLAIMAGAEFIVSPSFNRETAEICNLYQVPYLPGCMTITEMQTALKSGVDIVKLFPGSTYGPSIISAFQAPLPYLNIMPTGGVSLDNMASWFEAGVTAVGVGGNLLAHAKTGEFGKVTALAKQYMAKFREIKEN,not soluble
6,MKKWVCTVCGYIYDEDAGDPDNGISPGTKFEELPDDWVCPLCGVGKDQFEKLED,soluble
7,MKKYLLSFLLSMILTLTSHAESNPDPTTYPDVELSPPPRISLRSLLTAQPIKNDHYDSHNYLSTHWELIDYKGKEYEKLRDGGTLVQFKVVGAAKCFAFPGEGTTDCKDIDHTVFNLIPTNTGAFLIKDALLGFCMTSHDFDDLRLEPCGISVSGRTFSLAYQWGILPPFGPSKILRPPVGRNQGS,soluble
8,MKLAKLIPKRFFIRSKDRSTVSKSPTAFSFGSASSSSGQDCKNSGGDGGGGSVTPTSILPEVPSPYSYVEILQAFKLIDRDNDGAVSRHDLESLLSRLGPDPLTEEEINVMLKEVDCDGDGTIRLEELASRVVSLDPARDSTELKETFEFFDADRDGLISADELLRVFSTIGDERCTLDDCKRMIADVDEDGDGFVCFTEFSRMMDLQR,soluble
